# B1: pegloticase (protein)
# chain: TYKKNDEVEFVRTGYGKDMIKVLHIQRDGKYHSIKEVATTVQLTLSSKKDYLHGDNSDVIPTDTIKNTVNVLAKFKGIKSIETFAVTICEHFLSSFKHVIRAQVYVEEVPWKRFEKNGVKHVHAFIYTPTGTHFCEVEQIRNGPPVIHSGIKDLKVLKTTQSGFEGFIKDQFTTLPEVKDRCFATQVYCKWRYHQGRDVDFEATWDTVRSIVLQKFAGPYDKGEYSPSVQKTLYDIQVLTLGQVPEIEDMEISLPNIHYLNIDMSKMGLINKEEVLLPLDNPYGKITGTVKRKLSSRL
# modifications: monomethoxy PEG conjugated; Krystexxa Sequence
# notes: covalent conjugate of uricase produced by a genetically modified strain of Escherichia coli and monomethoxypoly (ethylene glycol)
# System: serum uric acid (sUA)
# Assay: Serum uric acid (sUA) levels and sUA responders, open-label study of pegloticase with MTX (NCT03635957)
# Assay type: in vivo, human
# Procedure: The primary objective is to estimate the response rate during Month 6 (Weeks 20, 22, and 24), as measured by the sustained normalization of serum uric acid (SUA) to <6 mg/dL for at least 80% of the time during Month 6 in subjects receiving KXX with MTX.
# The primary efficacy outcome endpoint is the sustained normalization of SUA to <6 mg/dL for at least 80% of the time during month 6 (weeks 20, 22, and 24) in subjects receiving KXX with MTX. This is slightly below the urate solubility threshold and this threshold has been the accepted standard for nearly all modern gout trials. Participants who achieve this endpoint were classified as “responders.” Serum uric acid (SUA) responders may also be defined as participants achieving and maintaining SUA <6 mg/dL for at least 80% of the time during Month 6 (Weeks 20, 22, and 24).
# Blood samples may be collected prior to each pegloticase infusion for measurement of SUA levels using the Beckman Coulter AU System Uric Acid procedure. Participants were declared “non-responders” if there were SUA measures >6 mg/dL at 2 consecutive study visits beginning with the week 2 visit. […] If the SUA goal is not maintained before or at the 12-week mark, it was assumed that the participant had developed clinically relevant anti-pegloticase antibody and they received no further infusions. This assumption and subsequent discontinuation of pegloticase was consistent with the protocol of large phase III randomized controlled trials and the product label. A formal stopping rule was 2 occasions of SUA levels of greater than 6 mg/dL.
# Clinical Chemistry—Blood samples were collected prior to each pegloticase infusion for measurement of SUA levels (primary efficacy parameter) using the Beckman Coulter AU System Uric Acid procedure. In this procedure uric acid is converted to hydrogen peroxide. Hydrogen peroxide reacts with reagent to produce a chromophore which is read bichromatically at 660/800 nm. The amount of dye formed is proportional to the uric acid concentration in the sample.
# Serum samples for measurement of SUA levels were collected at the Screening Visit, the Week −4 Visit (prior to the first dose of MTX), and the Week −2 Visit during the MTX Run-in Period; within 48 hours prior to each pegloticase infusion and after the end of each pegloticase infusion prior to discharge from the site during the Pegloticase+IMM Period; at the non-infusion Week 52/End of Study/Early Termination Visits and at the Post Treatment 3 and 6 Month Follow-up Visits. Additional serum samples for SUA levels were collected at optional non-infusion (Frequent Sampling) Visits at Weeks 1 and 7. […] Subjects with SUA level >6 mg/dL at 2 consecutive visits beginning at Week 2 visit discontinued treatment, completed the End of Pegloticase Infusion Visit procedures within 2 weeks and continued the subject visits according to the protocol (without treatment).
# Efficacy analyses were performed using the modified intention-to-treat (mITT) population, defined as all enrolled subjects who received ≥1 dose of pegloticase. The proportion of Month 6 responders was summarized, along with a 95% confidence interval for the proportion. The proportion of Month 3 and overall (Months 3 and 6 combined) responders was analyzed similarly.
# A subject was declared a non-responder if the subject had SUA level >6 mg/dL at 2 consecutive study visits beginning with the Week 2 Visit. In addition, a subject who withdraws from study treatment for any reason after the first dose of pegloticase in the KXX+MTX Period and prior to Month 6 (for the primary endpoint) or Month 3 (for the secondary endpoint) was considered a non-responder if SUA values were not collected at the planned time points.
# Patients were administered oral MTX (15 mg/week) and folate (1 mg/day) 4 weeks prior to the first pegloticase infusion (Day 1) and throughout the pegloticase treatment period. […]
# [1] = Week 12 - Post-Infusion, mITT, n=10
# [2] = Week 12 - Pre-Infusion, Month 6 sUA Responders
# [3] = Week 12 - Pre-Infusion, mITT, n=11
# [4] = Week 14 - Post-Infusion, Month 6 sUA Responders
# [5] = Week 14 - Post-Infusion, mITT, n=10
# [6] = Week 14 - Pre-Infusion, Month 6 sUA Responders
# [7] = Week 14 - Pre-Infusion, mITT, n=11
# [8] = Week 16 - Post-Infusion, Month 6 sUA Responders
# [9] = Week 16 - Post-Infusion, mITT, n=11
# [10] = Week 16 - Pre-Infusion, Month 6 sUA Responders
# [11] = Week 16 - Pre-Infusion, mITT, n=11
# [12] = Week 18 - Post-Infusion, Month 6 sUA Responders
# [13] = Week 18 - Post-Infusion, mITT, n=11
molecule,measurement,setting,value
B1,"sUA Change from Baseline, Mean (SD)",[1],−9.13 (2.911) mg/dL
same,"sUA Change from Baseline, Median",[1],-9.05 mg/dL
same,"sUA Observed, Mean (SD)",[1],0.30 (0.000) mg/dL
same,"sUA Observed, Median",[1],0.30 mg/dL
same,"sUA < 6 mg/dL, %",[2],(100%)
same,"sUA Change from Baseline, Mean",[2],-8.98 mg/dL
same,"sUA Change from Baseline, Median",[2],-8.80 mg/dL
same,"sUA Observed, Mean",[2],0.30 mg/dL
same,"sUA Observed, Median",[2],0.30 mg/dL
same,"sUA < 6 mg/dL, n (%)",[3],11 (100%)
same,"sUA Change from Baseline, Mean (SD)",[3],−8.98 (2.806) mg/dL
same,"sUA Change from Baseline, Median",[3],-8.80 mg/dL
same,"sUA Observed, Mean (SD)",[3],0.30 (0.015) mg/dL
same,"sUA Observed, Median",[3],0.30 mg/dL
same,"sUA < 6 mg/dL, %",[4],(100%)
same,"sUA Change from Baseline, Mean",[4],-9.01 mg/dL
same,"sUA Change from Baseline, Median",[4],-9.05 mg/dL
same,"sUA Observed, Mean",[4],0.30 mg/dL
same,"sUA Observed, Median",[4],0.30 mg/dL
same,"sUA < 6 mg/dL, n (%)",[5],10 (100%)
same,"sUA Change from Baseline, Mean (SD)",[5],−9.01 (2.959) mg/dL
same,"sUA Change from Baseline, Median",[5],-9.05 mg/dL
same,"sUA Observed, Mean (SD)",[5],0.30 (0.000) mg/dL
same,"sUA Observed, Median",[5],0.30 mg/dL
same,"sUA < 6 mg/dL, %",[6],(100%)
same,"sUA Change from Baseline, Mean",[6],-8.97 mg/dL
same,"sUA Change from Baseline, Median",[6],-8.80 mg/dL
same,"sUA Observed, Mean",[6],0.30 mg/dL
same,"sUA Observed, Median",[6],0.30 mg/dL
same,"sUA < 6 mg/dL, n (%)",[7],11 (100%)
same,"sUA Change from Baseline, Mean (SD)",[7],−8.97 (2.810) mg/dL
same,"sUA Change from Baseline, Median",[7],-8.80 mg/dL
same,"sUA Observed, Mean (SD)",[7],0.30 (0.000) mg/dL
same,"sUA Observed, Median",[7],0.30 mg/dL
same,"sUA < 6 mg/dL, %",[8],(100%)
same,"sUA Change from Baseline, Mean",[8],-8.97 mg/dL
same,"sUA Change from Baseline, Median",[8],-8.80 mg/dL
same,"sUA Observed, Mean",[8],0.30 mg/dL
same,"sUA Observed, Median",[8],0.30 mg/dL
same,"sUA < 6 mg/dL, n (%)",[9],11 (100%)
same,"sUA Change from Baseline, Mean (SD)",[9],−8.97 (2.810) mg/dL
same,"sUA Change from Baseline, Median",[9],-8.80 mg/dL
same,"sUA Observed, Mean (SD)",[9],0.30 (0.000) mg/dL
same,"sUA Observed, Median",[9],0.30 mg/dL
same,"sUA < 6 mg/dL, %",[10],(100%)
same,"sUA Change from Baseline, Mean",[10],-8.97 mg/dL
same,"sUA Change from Baseline, Median",[10],-8.80 mg/dL
same,"sUA Observed, Mean",[10],0.30 mg/dL
same,"sUA Observed, Median",[10],0.30 mg/dL
same,"sUA < 6 mg/dL, n (%)",[11],11 (100%)
same,"sUA Change from Baseline, Mean (SD)",[11],−8.97 (2.810) mg/dL
same,"sUA Change from Baseline, Median",[11],-8.80 mg/dL
same,"sUA Observed, Mean (SD)",[11],0.30 (0.000) mg/dL
same,"sUA Observed, Median",[11],0.30 mg/dL
same,"sUA < 6 mg/dL, %",[12],(100%)
same,"sUA Change from Baseline, Mean",[12],-8.97 mg/dL
same,"sUA Change from Baseline, Median",[12],-8.80 mg/dL
same,"sUA Observed, Mean",[12],0.30 mg/dL
same,"sUA Observed, Median",[12],0.30 mg/dL
same,"sUA < 6 mg/dL, n (%)",[13],11 (100%)
same,"sUA Change from Baseline, Mean (SD)",[13],−8.97 (2.810) mg/dL
same,"sUA Change from Baseline, Median",[13],-8.80 mg/dL
same,"sUA Observed, Mean (SD)",[13],0.30 (0.000) mg/dL
same,"sUA Observed, Median",[13],0.30 mg/dL
same,"sUA < 6 mg/dL, %","Week 18 - Pre-Infusion, Month 6 sUA Responders",(100%)

# Reference: patent US20220323445A1, “REDUCING IMMUNOGENICITY TO PEGLOTICASE” (Horizon Therapeutics Ireland DAC, priority 2020, published 2022)
